Measured values as given in US20210340265A1 (UNM RAINFOREST INNOVATIONS, published 2021).
Blank lines part the entries; values can stand above or below the binder they belong to. Ends that are not written are not given here. * marks the point of attachment. Biotin = O=C1N[C@H]2[C@H](CS[C@H]2CCCCC(=O)*)N1

Assays:
[1] = target: T1, CCK-B receptor (as coated in the indirect ELISA; form not stated); test: ELISA
T1 chain: CETPRIRGTGTRELE

[2] = target: T2, 15-amino-acid extracellular CCK-B receptor peptide fragment CETPRIRGTGTRELE; test: indirect ELISA on CCK-B receptor peptide
T2 construct: Custom peptide (GenScript) used for immunization and panning; also called CCK-B peptide
T2 peptide: Biotin-CETPRIRGTGTRELE

B1: CCK-BR-scFv14-3 (scFv)
chain: MAGAELVRSGASVKLSCTASGFNIKDYYIHWVKQRPEQGLEWIGWIDPENGDTEYAPKFQGKATMTADTSSNTAYLQLSSLTSEDTAVYYCNAGGRFAYWGQGTLVTVSAAKTTAPSGGGGSGGGGSGGGGGSGGGGSSSLSVSSGEKVTMSCKSSQSLLNSGNQKNYLAWYQQKPGQPPKLLIYWASTDESGVPDRFTGSGSGTDFTLTVSSVQAENLALYYCQNDHSYPYHVFDGGTKLEIKRADAAALE
- Kd [1]: 349 nM

B4: CCK-BR-scFv77-2 (scFv)
scFv: MAGAELVRSGASVKLSCTASGFNIKDYYIHWVKQRPEQGLEWIGWIDPENGDTEYAPKFQGKATMTADTSSNTAYLQLSSLTSEDTAVYYCNAGGRFAYWGQGTLVTVSAAKTTAPSGGGGSGGGGSGGGGGSGGGGSSSLSVSAGEKVTMSCKSSQSLLNSGNQKNYLAWYQQKPGQPPKLLIYGASTRESGVPDRFTGSGSGTDFTLTISSVQAEDLAVYYCQNDHSYPYTFGGGTKLEIKRADAAALEHHHHHH
- Kd [1]: 195 nM

The remaining lines, values ahead:

- binding result [2]: binds
B2: CCKBR-scFv11-2 (scFv)
scFv: MAQVQLKQSGAELVRPGSSVKISCKASGYAFTNYLIEWVKQRPGQGLEWIGQIYPGDGDTNYNGKFKGKATLTVDNSSSTAYMELRSLTSEDSAVYYCARAATWYYAMDYWGQGTSVTVSSGGGGSGGGGSAIMSASPGEKVTITCSASSSVSYMHWFQQKPGTSPKLWIYSTSNLASGVPARFSGSGSGTSYSLTISSMEAEDAASYFCHQWSSYPWTFGGGTKLEIKRADAAALEHHHHHH

- Kd [1]: 366 nM
B3: CCK-BR-scFv134-1 (scFv)
scFv: MAGAELVKPGASVKMSCKASGYTFTDYWMHWVKQRPGQGLEWIGAIDTSDSYTSYNQKFKGKATLTVDKSSSTAYIQLSSLTSEDSAVYYCARSEGYLPFDYWGQGTTLTVSSAKTTAPSGGGGSGGGGSGGGGGSGGGGSLSLPVSFGDQVSISCRSSQSLANSYGNTYLSWYLHKPGQSPQLLIYGISNRFSGVPDRFSGSGSGTDFTLKISTIKPEDLGMYYCLQGTHQPRTFGGGTKLEIKRADAAALEHHHHHH
